The numbers were not newly measured in PMC10178616, which cites them from elsewhere.

This data set deals with AGR2 (Homo sapiens) (UniProt O95994).

What is called Kd is the free concentration of one partner at which half of the binding sites on the other are occupied at equilibrium, for simple one-to-one binding. As to AGR2 (from UniProt O95994), the Kd was 8.83 µM.
